Results taken from publication PMC7506551 (2020).

Target: SMARCB1 (aa 169–385) (human, UniProt Q12824 169-385)
Assay: ITC; second site (Kd2, two-site model)

SMARCB1 (aa 169–385), sequence (Q12824 169-385): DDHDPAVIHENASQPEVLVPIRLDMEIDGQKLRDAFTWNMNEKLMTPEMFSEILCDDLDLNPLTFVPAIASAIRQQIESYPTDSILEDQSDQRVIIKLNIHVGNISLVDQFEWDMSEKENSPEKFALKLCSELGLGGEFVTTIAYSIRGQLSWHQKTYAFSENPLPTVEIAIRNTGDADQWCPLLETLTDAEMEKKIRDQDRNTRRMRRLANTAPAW

B1: SMARCC2 (aa 325–518) (domain or fragment)
chain: TKSKRGHREEEQEDLTKDMDEPSPVPNVEEVTLPKTVNTKKDSESAPVKGGTMTDLDEQEDESMETTGKDEDENSTGNKGEQTKNPDLHEDNVTEQTHHIIIPSYAAWFDYNSVHAIERRALPEFFNGKNKSKTPEIYLAYRNFMIDTYRLNPQEYLTSTACRRNLAGDVCAIMRVHAFLEQWGLINYQVDAES
- Kd: 1.96 nM
